Results published in US20230242624A1 (NEURIMMUNE, published 2023).
Where “and” joins values, the source holds several entries; their conditions need not be identical. Identical values can stand only once.

T1: MERS-CoV Spike protein fragment (RBD, aa 367-606, His tag) (MERS-CoV, UniProt K9N5Q8 367-606)
T1 sequence: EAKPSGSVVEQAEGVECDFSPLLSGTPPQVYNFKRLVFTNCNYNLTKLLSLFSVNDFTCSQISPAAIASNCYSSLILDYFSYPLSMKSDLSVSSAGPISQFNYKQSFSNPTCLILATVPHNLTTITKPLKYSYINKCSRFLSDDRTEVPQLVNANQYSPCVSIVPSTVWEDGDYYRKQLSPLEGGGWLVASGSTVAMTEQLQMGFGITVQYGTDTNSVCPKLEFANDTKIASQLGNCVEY


Key:
BSA (Sigma-Aldrich) = molecular target: T2, BSA (Sigma-Aldrich) (bovine, UniProt P02769 25-607); experiment: direct ELISA on coated BSA
T2 construct: also called bovine serum albumin; BSA control

[1] = molecular target: T1, MERS-CoV Spike protein fragment (RBD, …); experiment: iQue flow cytometry, antigen-coated beads
[2] = molecular target: T3, SARS-CoV-2-S1 (RBD)-His protein (Trenzyme) (SARS-CoV-2, UniProt P0DTC2 319-541); experiment: iQue flow cytometry, antigen-coated beads
[3] = molecular target: T3, SARS-CoV-2-S1 (RBD)-His protein …; experiment: competition ELISA, RBD binding to coated ACE2
[4] = molecular target: SARS-CoV-2 Spike (S) protein on vesicular stomatitis virus (VSV) pseudoviruses (SARS-CoV-2, UniProt P0DTC2 14-1273); experiment: cell-based or functional assay
[5] = molecular target: T3, SARS-CoV-2-S1 (RBD)-His protein …; experiment: direct ELISA on coated RBD-His
[6] = molecular target: recombinant SARS-CoV Spike protein (RBD, His tag) (SARS-CoV, UniProt P59594 306-527); experiment: iQue flow cytometry, antigen-coated beads
[7] = molecular target: T3, SARS-CoV-2-S1 (RBD)-His protein …; experiment: competition ELISA, RBD binding to coated ACE2; remark: listed apart in the source
[8] = molecular target: T3, SARS-CoV-2-S1 (RBD)-His protein …; experiment: competition ELISA, RBD binding to coated ACE2; IgG1
[9] = molecular target: T3, SARS-CoV-2-S1 (RBD)-His protein …
[10] = molecular target: T3, SARS-CoV-2-S1 (RBD)-His protein …; experiment: direct ELISA on coated RBD-His; remark: listed apart in the source

Row | Binder | binding result (BSA (Sigma-Aldrich)) | EC50 [1] [nM] | EC50 [2] [nM] | IC50 [3] [nM] | IC50, pseudovirus entry assay (luciferase, HEK 293T-ACE2 cells) [4] | EC50 [5] [nM] | EC50 [6] [nM] | IC50 [7] | IC50 [8] [µg/mL] | IC50 (read off the curve) [9] [µg/mL] | EC50 [10] [nM]
1 | NI-607.429_B9 (antibody, V domains shown) VH: EVQLVESGGGLVQPGGSLRLSCAASGFTFSSYWMSWVRQAPGKGLEWVANIKQDGSEKYYVDSVKGRFTISRDNAKNSLYLQMNSLRAEDTAVYYCASLFWRRGSFDPWGQGTLVTVSS VL: QSVLTQPHSVSESPGKTVTISCTRSTGSIASNYVQWYQQRPGSAPTTVIYEDNQRPSGVPDRFSGSIDSSSNSASLTISGLKTEDEADYYCQSYDTSSYWVFGGGTKLTVL | no binding (tested: 400 nM) | 600 | 1.87 | 0.074 | 7.1 µg/mL | 0.014 | – | – | – | – | –
2 | NI-607.532_F3 (antibody, V domains shown) VH: EVQLVQSGAEVKKPGESLKISCKGFGYIFSNDWIGWVRQKPGKGLEWMGIIYPGDSDTRYSPSFRGQVTISADKSVSTAYLQWDSLKASDTAVYYCTRPRYTTMIVGSNPFDVWGQGTTVTVSS VL: QSVLTQPPSVSGAPGQRVTISCTGSSSNIGGGYDVHWYQKLPGTAPKLLIFDNDNRPSGVPDRFSGSKSDTSASLTITGLQAEDEADYFCQSYDSSLSGSGVVFGGGTKLTVL | – | 1000 | 1.2 | 0.353 | 11.7 µg/mL | 0.019 | 1.3 | – | – | – | –
3 | NI-607.427_C5 (antibody, V domains shown) VH: QVQLVQSGAEVKKPGASVKVSCKASGYTFTSYGISWVRQAPGQGLEWMGWISAYNGNTNYAQKLQGRVTMTTDTSTSTAYMELRSLRSDDTAVYYCARDNRAGWDQLDYWGQGTLVTVSS VL: not shown | no binding (tested: 400 nM) | 600 | 3.2 | 2.88 | > 100 µg/mL | 0.014 | 3 | ~2.15 µg/mL and ~14.3 nM | – | – | –
4 | NI-607.426_F11 (antibody, V domains shown) VH: QVQLVESGGGLVQPGGSLRLSCAASGFTFSSYWMSWVRQAPGKGLEWVANIKQDGSEKYYVDSVKGRFTISRDNAKNSLYLQMNSLRAEDTAVYYCARGLVGQWLGVDYWGQGTLVTVSS VL: QSVLTQPHSVSESPGKTVTISCTGSSGSIASNYVQWYQQRPGSAPTTVIYEDNQRPSGVPDRFSGSIDSSSNSASLTISGLKTEDEADYYCQSYDSSNWVFGGGTKLTVL | no binding (tested: 400 nM) | 1000 | 0.89 | 1.14 | > 100 µg/mL | 0.017 | – | – | – | – | –
5 | NI-607.274_B7 (antibody, V domains shown) VH: QVQLVESGGGRVQPGRSLRLSCAASGFTFSTHGMHWVRQVPGKGLDWITGITYDGSDQFYADSVKGRFTISRDNSKNMLYLQMNSLRAEDTAVYFCAKDLEWLTNYLDHWGQGTLVTVSS VL: DVVMTQSPGTLSVSPGERATLSCRASQNINYNLAWYQQKPGQAPRLLIFDASTRATGIPARFTGSGSGTEFTLTISSLQSEDFAVYYCQQSNAWLTFGGGTKVEIK | no binding (tested: 400 nM) | 900 | 0.67 | 7.8 | > 100 µg/mL | 0.021 | – | – | – | – | –
6 | NI-607.429_E4 (antibody, V domains shown) VH: QVQLVESGGGLVQPGGSLRLSCAASGFTVSSNYMSWVRQAPGKGLEWVSVIYSGGSTFYADSVKGRFTISRDNSKNTLYLQMNSLRAEDTAVYYCARDLQESGMDVWGQGTTVTVSS VL: DIQLTQSPSSVSASVGDRVTITCRASQGISSWLAWYQQKPGKAPKLLIYAASSLQSGVPSRFSGSGSGTDFTLTISSLQPEDFATYYCQQANSFPTFGQGTRLEIK | no binding (tested: 400 nM) | 200 | 1.9 | 0.275 | 0.035 µg/mL | 0.0086 | – | ~0.345 µg/mL and ~2.3 nM | – | – | –
7 | NI-607.529_B9 (antibody, V domains shown) VH: QVQLQESGPGLVKPSETLSLTCTVSGGSISSSSYYWGWIRQPPGKGLEWIGNIYYSGSTYYNPSLKSRVTISVDTSKNQFSLKLNSVTAADTAVYFCARLLWLRGSYYWGQGTLVTVSS VL: SYELTQPHSVSESPGKTVTISCTGSSGSIASNYVQWYQQRPGSAPTTVIYEDNQRPSGVPDRFSGSIDSSSNSASLTISGLKTEDEADYYCQSYDSSNWVFGGGTKLTVL | no binding (tested: 400 nM) | 300 | 1 | 0.116 | 1.9 µg/mL | 0.034 | 20 | – | – | – | –
8 | NI-607.531_C8 (antibody, V domains shown) VH: EVQLVESGGGVVQPGRSLRLSCTASGFTFSFYSVHWVRQAPGKGLEWVAVISYDGSTKYYADSVKGRFTISRDNSKNTLYLQMDSLRTEDTAVYYCASPPISPIPAAGTPLAYWGQGTLVTVSS VL: not shown | – | 1000 | 1.2 | 0.153 | 86.4 ng/mL and 0.572 nM | 0.011 | 1000 | – | ~0.132 | ~0.03 | ~0.017
9 | NI-607.532_C11 (antibody, V domains shown) VH: QVQLVESGGGLIQPGGSLRLSCAASGFTVSSNYMSWVRQAPGKGLEWVSVIYSGGSTYYADSVKGRFTISRDNSKNTLFLQMNSLRAEDTAVYYCARDLQYYGMDVWGQGTTVTVSS VL: DIQMTQSPSFLSASVGDRVTITCRASQGISSYLAWYQQKPGKAPKLLIYAASTLQSGVPSRFSGSGSGTEFTLTISSLQPEDFATYYCQQLDSYPPRDTFGQGTKVEIK | no binding (tested: 400 nM) | 1000 | 2.4 | 0.826 | 0.0872 µg/mL | 0.013 | – | ~1.12 µg/mL and ~7.44 nM | – | – | –
10 | NI-607.532_D3 (antibody, V domains shown) VH: EVQLVQSGAEVKRPGASVKVSCKASGYHFTDYYIHWVRQAPGQGLEWMGWINPNSGGTNYAQKFQGRVTMTRDTSISTAYMELSRLRSDDTAVYYCARVYYYDSSSSADYWGQGTLVTVSS VL: not shown | no binding (tested: 400 nM) | 1000 | 1 | 0.917 | 2.1 µg/mL | 0.0049 | 1000 | ~0.457 µg/mL and ~3 nM | – | – | –
11 | NI-607.532_F9 (antibody, V domains shown) VH: EVQLVESGGNLIQPGGSLRLSCAASGFTVSSNYMSWVRQAPGKGLEWVSVIYSGGSTYYADSVKGRFTISRDNSRNTLYLQMNSLRAEDTAVYFCARDRVVRGVRGNGMDVWGQGTTVTVSS VL: AIRMTQSPSSLSASVGDRVTITCQASQDINIYLNWYQQRPGKAPKLLIYDASNLETGVPSRFSGSGSGTDFTFTISSLQPEDIATYYCHQYDNLPRTFGQGTKVDIK | – | 1000 | 3.3 | 0.775 | 0.364 µg/mL | 0.0025 | 1000 | ~0.668 µg/mL and ~4.4 nM | – | – | –
12 | NI-607.429_E4 IgG4 (antibody, V domains shown) VH: QVQLVESGGGLVQPGGSLRLSCAASGFTVSSNYMSWVRQAPGKGLEWVSVIYSGGSTFYADSVKGRFTISRDNSKNTLYLQMNSLRAEDTAVYYCARDLQESGMDVWGQGTTVTVSS VL: DIQLTQSPSSVSASVGDRVTITCRASQGISSWLAWYQQKPGKAPKLLIYAASSLQSGVPSRFSGSGSGTDFTLTISSLQPEDFATYYCQQANSFPTFGQGTRLEIK | – | – | – | – | – | – | – | ~0.699 µg/mL and ~4.65 nM | – | – | –
13 | NI-607.532_D3 IgG4 (antibody, V domains shown) VH: EVQLVQSGAEVKRPGASVKVSCKASGYHFTDYYIHWVRQAPGQGLEWMGWINPNSGGTNYAQKFQGRVTMTRDTSISTAYMELSRLRSDDTAVYYCARVYYYDSSSSADYWGQGTLVTVSS VL: not shown | – | – | – | – | – | – | – | ~0.457 µg/mL and ~3 nM | – | – | –
